Measurements as given in paper PMC10200060, “Inhibition of DAMP actions in the tumoral microenvironment using lactoferrin-glycyrrhizin conjugate for glioblastoma therapy” (Biomaterials Research, 2023).

Key:
[1] = test system: U87MG human glioma cell line; test: Cell viability test (CCK-8) in U87MG; assay type: cell-based; conditions: 50 μM GL equivalent
Description: Cell viability was determined using a cell counting kit-8 (CCK-8). U87MG and HUVECs (seeding density: 0.75 × 10^4 cells per well) in 96-well culture plates were treated with GL, Lf, or Lf-GL (25 to 200 × 10^–6 M of GL equivalent concentration) and were incubated for different periods of time (24, 48, and 72 h). After washing with PBS, they were treated with a cell culture medium containing a CCK-8 assay kit (Abbkine) and were incubated at 37 °C and 5% CO2 for 2 h. Then, absorbance was measured at 450 nm in a micro-plate reader (VLBL00D0, Thermo Fisher Scientific). Results were quantified using Sigma Plot (Systat Software, USA). To determine the effect of extracellular HMGB1 in GBM and endothelial cell proliferation, U87MG and HUVECs were seeded in 96-well culture plates (seeding density: 0.75 × 10^4 cells per well) and GL, Lf, or Lf-GL (50 × 10^–6 M GL equivalent concentration) were added to cells with or without HMGB1 protein (U87MG: 0.1 μg mL^−1, and HUVEC: 1 μg mL^−1). Cells were incubated for different periods of time (24, 48, and 72 h).

[2] = test system: orthotopic GBM (U87MG) mice model; test: TUNEL assay of GBM tissue; assay type: in vivo, Balb/c nude mice; conditions: daily i.v., 14 days (control 28.5 ± 4.8)
Description: After two weeks, mice were sacrificed, and the brains were harvested and fixed with paraformaldehyde (4%). Then, tissue processing was automatically conducted using a Leica TP1020 semi-enclosed Benchtop Tissue Processor (Leica Biosystems, Wetzlar, Hesse, Germany), followed by embedding in paraffin blocks. Paraffin blocks were sliced into 5 μm thick slices using a Leica RM2145 Microtome (Leica Biosystems). Nissl staining was used to stain brain tissue slides with pre-warmed 0.1% Cresyl Violet Stain Solution (Abcam). TUNEL assays were conducted following the manufacturer’s instructions. For immunofluorescence staining; anti-HMGB1 antibody (Abcam), anti-Ki67 antibody (Abcam), anti-CD31 antibody (Abcam), and anti-VEGF antibody (Abcam) were used as primary antibodies, and goat anti-rabbit IgG-H&L Alexa Fluor 488 and goat anti-rabbit IgG H&L Alexa Fluor 647 were used as secondary antibodies, followed by DAPI mounting.

B1: Lf-GL: lactoferrin-glycyrrhizin conjugate with ligation ratio Lf:GL 1:10, used in further experiments (conjugate, UniProt P24627 20-708, looked up)
Lactotransferrin: APRKNVRWCTISQPEWFKCRRWQWRMKKLGAPSITCVRRAFALECIRAIAEKKADAVTLDGGMVFEAGRDPYKLRPVAAEIYGTKESPQTHYYAVAVVKKGSNFQLDQLQGRKSCHTGLGRSAGWIIPMGILRPYLSWTESLEPLQGAVAKFFSASCVPCIDRQAYPNLCQLCKGEGENQCACSSREPYFGYSGAFKCLQDGAGDVAFVKETTVFENLPEKADRDQYELLCLNNSRAPVDAFKECHLAQVPSHAVVARSVDGKEDLIWKLLSKAQEKFGKNKSRSFQLFGSPPGQRDLLFKDSALGFLRIPSKVDSALYLGSRYLTTLKNLRETAEEVKARYTRVVWCAVGPEEQKKCQQWSQQSGQNVTCATASTTDDCIVLVLKGEADALNLDGGYIYTAGKCGLVPVLAENRKSSKHSSLDCVLRPTEGYLAVAVVKKANEGLTWNSLKDKKSCHTAVDRTAGWNIPMGLIVNQTGSCAFDEFFSQSCAPGADPKSRLCALCAGDDQGLDKCVPNSKEKYYGYTGAFRCLAEDVGDVAFVKNDTVWENTNGESTADWAKNLNREDFRLLCLDGTRKPVTEAQSCHLAVAPNHAVVSRSDRAAHVKQVLLHQQALFGKNGKNCPDKFCLFKSETKNLLFNDNTECLAKLGGRPTYEEYLGTEYVTAIANLKKCSTSPLLEACAFLTR
modifications: glycyrrhizin conjugate
Growth rate ([1]; 72 h): 68.7 ± 15.9%
Number of cells, % of the original count ([1]; after 48 h treatment): 44.1 ± 6.3%
TUNEL MFI [2]: 9.1 ± 0.9
